Experimental data as given in patent publication US20220220218A1 (JIANGSU HENGRUI MEDICINE, published 2022).
Residue numbers refer to the chain shown, from its start.

B1: CH108 (antibody, V domains shown)
VH: QVQLKQSGPGLVQPSQSLSITCTVFGFSLKSYGIQWVRQSPGKGLEWLGVIWSGGSADYNAAFISRLSISKDNSKSQVFFKMNSLQGDDTAIYYCAGQYGSVWGQGTSVTVSS
VL: DIQMTQSPSSLSASLGERVSLTCRASQDIGDRLNWLQQEPDGTIKRLIYATSSLDSGVPKRFSGSRSGSDYSLTISSLESEDFVDYYCLQYAGSWTFGGGTKLEIK
notes: also called chimeric antibody of mab108
B2: Hab110.23 (antibody, V domains shown)
VH: EVQLVQSGAEVKKPGASVKVSCKASGYTFTSYTMHWVRQAPGQRLEWIGYINPNSFYIEYNQKFKDRATLTADTSASTAYMELSSLRSEDTAVYYCARGDYDLFYDMDNWGQGTTVTVSS
VL: DIQMTQSPSSLSASVGDRVTITCRASQDIGNSLNWLQQKPGKAIKRLIYATFRLDSGVPSRFSGSRSGTEYTLTISSLQPEDFATYYCQQYASFPWTFGGGTKVEIK
notes: VL2 + VH3; recombined with human heavy and light constant regions
B3: Hab127.32 (antibody, V domains shown)
VH: EVQLVQSGAEVKKPGASVKVSCKASGYTFTAYFMNWVMQAPGQGLEWMGRIYHNNGDTFYSQKFKGRVTMTVDKSTSTVYMELSSLRSEDTAVYYCATSYVGDWGQGTTVTVSS
VL: B2 VL with N31D, K42G, I44L, F52S, R53S, R66G, Q89L
notes: VL3 + VH2; recombined with human heavy and light constant regions
B4: Hab127.24 (antibody, V domains shown)
VH: B3 VH with G44S, M48I, V68A, M70L, S84R
VL: B2 VL with N31D, I44P, F52S, R53S, R66G, Q89L
notes: VL2 + VH4; recombined with human heavy and light constant regions
B5: Hab127.21 (antibody, V domains shown)
VH: B3 VH with M38R
VL: B2 VL with N31D, I44P, F52S, R53S, R66G, Q89L
notes: VL2 + VH1; recombined with human heavy and light constant regions
B6: Hab127.31i (antibody, V domains shown)
VH: B3 VH with M38R, N54H, G56V
VL: B2 VL with N31D, K42G, I44L, F52S, R53S, R66G, Q89L
notes: VL3 + VH1i, HCDR2 hot-spot variant; full-length antibody
B7: Hab127.43 (antibody, V domains shown)
VH: B3 VH with M48I, V68A, M70L
VL: B2 VL with N31D, K42G, I44L, F52S, R53S, R66G, T69S, E70D, Q89L
notes: VL4 + VH3; recombined with human heavy and light constant regions
B8: Hab127.31c (antibody, V domains shown)
VH: B3 VH with M38R, N55T
VL: B2 VL with N31D, K42G, I44L, F52S, R53S, R66G, Q89L
notes: VL3 + VH1c, HCDR2 hot-spot variant; full-length antibody
B9: Hab127.31f (antibody, V domains shown)
VH: B3 VH with M38R, N55H
VL: B2 VL with N31D, K42G, I44L, F52S, R53S, R66G, Q89L
notes: VL3 + VH1f, HCDR2 hot-spot variant; full-length antibody
B10: Hab127.42 (antibody, V domains shown)
VH: B3 VH
VL: B2 VL with N31D, K42G, I44L, F52S, R53S, R66G, T69S, E70D, Q89L
notes: VL4 + VH2; recombined with human heavy and light constant regions
B11: Hab110.22 (antibody, V domains shown)
VH: B2 VH with I48M, A68V, L70I
VL: B2 VL
notes: VL2 + VH2; recombined with human heavy and light constant regions
B12: Hab110.31 (antibody, V domains shown)
VH: B2 VH with I48M, A68V, L70I, A72R
VL: B2 VL with K42G, T85D
notes: VL3 + VH1; recombined with human heavy and light constant regions
B13: Hab127.13 (antibody, V domains shown)
VH: B3 VH with M48I, V68A, M70L
VL: B2 VL with N31D, L36Y, I44P, F52S, R53S, R66G, Y71F, Q89L
notes: VL1 + VH3; recombined with human heavy and light constant regions
B14: Hab127.31g (antibody, V domains shown)
VH: B3 VH with M38R, N54Q, G56V
VL: B2 VL with N31D, K42G, I44L, F52S, R53S, R66G, Q89L
notes: VL3 + VH1g, HCDR2 hot-spot variant; full-length antibody
B15: Hab110.32 (antibody, V domains shown)
VH: B2 VH with I48M, A68V, L70I
VL: B2 VL with K42G, T85D
notes: as for B3
B16: Hab110.24 (antibody, V domains shown)
VH: B2 VH with R67K
VL: B2 VL
notes: as for B4
B17: Hab127.22 (antibody, V domains shown)
VH: B3 VH
VL: B2 VL with N31D, I44P, F52S, R53S, R66G, Q89L
notes: as for B11
B18: Hab127.31b (antibody, V domains shown)
VH: B3 VH with M38R, N55L
VL: B2 VL with N31D, K42G, I44L, F52S, R53S, R66G, Q89L
notes: VL3 + VH1b, HCDR2 hot-spot variant; full-length antibody
B19: Hab127.41 (antibody, V domains shown)
VH: B3 VH with M38R
VL: B2 VL with N31D, K42G, I44L, F52S, R53S, R66G, T69S, E70D, Q89L
notes: VL4 + VH1; recombined with human heavy and light constant regions
B20: Hab110.34 (antibody, V domains shown)
VH: B2 VH with R67K
VL: B2 VL with K42G, T85D
notes: VL3 + VH4; recombined with human heavy and light constant regions
B21: Hab127.34 (antibody, V domains shown)
VH: B3 VH with G44S, M48I, V68A, M70L, S84R
VL: B2 VL with N31D, K42G, I44L, F52S, R53S, R66G, Q89L
notes: as for B20
B22: Hab127.31h (antibody, V domains shown)
VH: B3 VH with M38R, N54L, G56V
VL: B2 VL with N31D, K42G, I44L, F52S, R53S, R66G, Q89L
notes: VL3 + VH1h, HCDR2 hot-spot variant; full-length antibody
B23: Hab127.23 (antibody, V domains shown)
VH: B3 VH with M48I, V68A, M70L
VL: B2 VL with N31D, I44P, F52S, R53S, R66G, Q89L
notes: as for B2
B24: Hab127.31 (antibody, V domains shown)
VH: B3 VH with M38R
VL: B2 VL with N31D, K42G, I44L, F52S, R53S, R66G, Q89L
notes: as for B12
B25: Hab110.25 (antibody, V domains shown)
VH: B2 VH with R38K, R44G, R67K
VL: B2 VL
notes: VL2 + VH5; recombined with human heavy and light constant regions
B26: Hab127.14 (antibody, V domains shown)
VH: B3 VH with G44S, M48I, V68A, M70L, S84R
VL: B2 VL with N31D, L36Y, I44P, F52S, R53S, R66G, Y71F, Q89L
notes: VL1 + VH4; recombined with human heavy and light constant regions
B27: Hab127.33 (antibody, V domains shown)
VH: B3 VH with M48I, V68A, M70L
VL: B2 VL with N31D, K42G, I44L, F52S, R53S, R66G, Q89L
notes: VL3 + VH3; recombined with human heavy and light constant regions
B28: Hab110.35 (antibody, V domains shown)
VH: B2 VH with R38K, R44G, R67K
VL: B2 VL with K42G, T85D
notes: VL3 + VH5; recombined with human heavy and light constant regions
B29: Hab127.44 (antibody, V domains shown)
VH: B3 VH with G44S, M48I, V68A, M70L, S84R
VL: B2 VL with N31D, K42G, I44L, F52S, R53S, R66G, T69S, E70D, Q89L
notes: VL4 + VH4; recombined with human heavy and light constant regions
B30: Hab127.31e (antibody, V domains shown)
VH: B3 VH with M38R, N55E
VL: B2 VL with N31D, K42G, I44L, F52S, R53S, R66G, Q89L
notes: VL3 + VH1e, HCDR2 hot-spot variant; full-length antibody
B31: Hab127.31a (antibody, V domains shown)
VH: B3 VH with M38R, N55Q
VL: B2 VL with N31D, K42G, I44L, F52S, R53S, R66G, Q89L
notes: VL3 + VH1a, HCDR2 hot-spot variant; full-length antibody

Target: T1, human CD73 (huCD73) protein, antigen of the Biacore assay (human, UniProt P21589 27-547, limits assumed)
T1 construct: also called human CD73 antigen
T1 sequence (looked up): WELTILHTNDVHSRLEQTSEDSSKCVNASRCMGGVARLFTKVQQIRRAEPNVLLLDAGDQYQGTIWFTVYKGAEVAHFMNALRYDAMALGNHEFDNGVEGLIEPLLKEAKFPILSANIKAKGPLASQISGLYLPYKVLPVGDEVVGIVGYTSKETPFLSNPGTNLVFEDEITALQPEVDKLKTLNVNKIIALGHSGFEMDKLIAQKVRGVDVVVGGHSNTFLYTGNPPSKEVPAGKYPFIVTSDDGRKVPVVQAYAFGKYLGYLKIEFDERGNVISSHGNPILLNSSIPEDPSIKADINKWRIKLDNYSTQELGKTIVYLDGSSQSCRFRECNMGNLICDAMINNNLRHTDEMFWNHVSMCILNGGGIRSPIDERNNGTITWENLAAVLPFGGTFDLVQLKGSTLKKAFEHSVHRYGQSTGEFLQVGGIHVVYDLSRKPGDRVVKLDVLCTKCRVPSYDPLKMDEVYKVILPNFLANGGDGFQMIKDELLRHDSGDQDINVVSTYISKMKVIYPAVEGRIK
Experiment: SPR Biacore T200; antibody captured on Protein A chip, CD73 in flow; 1:1 Langmuir
Excerpt: In this experiment, Biacore instrument was used to determine the affinity of the humanized anti-CD73 antibodies to be tested with human CD73 (huCD73) and monkey CD73 (cynoCD73).
A certain amount of test antibody was affinity-captured with Protein A biosensing chip (Cat. #29127556, GE), and then a certain concentration of human or monkey CD73 antigen was allowed to flow through the surface of the chip. The reaction signals were detected in real time with Biacore instrument (Biacore T200, GE) to generate a binding and dissociation curve. At the end of each cycle, after the dissociation was completed, the biosensor chip was washed and regenerated with Glycine-HCl, pH1.5 (Cat. #BR-1003-54, GE). The running buffer for the assay was 1×HBS-EP buffer solution (Cat. #BR-1001-88, GE).
The data obtained from the experiment was fitted against (1:1) Langmuir model using GE Biacore T200 Evaluation version 3.0 software, and the affinity values were obtained, as shown in Table 12 and Table 13 for details.

Row | Binder | Kd [nM] | koff [s⁻¹] | kon [M⁻¹ s⁻¹]
1 | B1 | 0.365 | 5.82e-05 | 160000
2 | B2 | 0.166 | 5.43e-05 | 327000
3 | B3 | 0.277 | 4.6e-05 | 166000
4 | B4 | 0.28 | 4.48e-05 | 160000
5 | B5 | 0.333 | 5.4e-05 | 162000
6 | B6 | 0.585 | 7.93e-05 | 136000
7 | B7 | 0.15 | 3.58e-05 | 239000
8 | B8 | 0.205 | 4.76e-05 | 232000
9 | B9 | 0.193 | 4.33e-05 | 224000
10 | B10 | 0.166 | 3.94e-05 | 238000
11 | B11 | 0.147 | 4.95e-05 | 338000
12 | B12 | 0.161 | 5.86e-05 | 364000
13 | B13 | 0.79 | 0.000119 | 150000
14 | B14 | 0.319 | 5.18e-05 | 163000
15 | B15 | 0.188 | 6.94e-05 | 370000
16 | B16 | 0.188 | 6.2e-05 | 330000

Row | Binder | Kd [nM] | koff [s⁻¹] | kon [M⁻¹ s⁻¹]
17 | B17 | 0.292 | 4.86e-05 | 166000
18 | B18 | 0.204 | 4.48e-05 | 220000
19 | B19 | 0.191 | 4.39e-05 | 230000
20 | B20 | 0.228 | 8.16e-05 | 358000
21 | B21 | 0.22 | 3.58e-05 | 163000
22 | B22 | 0.441 | 6.66e-05 | 151000
23 | B23 | 0.276 | 4.59e-05 | 166000
24 | B24 | 0.257 | 4.2e-05 | 163000
25 | B25 | 0.223 | 7.79e-05 | 349000
26 | B26 | 0.847 | 0.000118 | 140000
27 | B27 | 0.211 | 3.69e-05 | 175000
28 | B28 | 0.244 | 9.4e-05 | 385000
29 | B29 | 0.18 | 4.15e-05 | 230000
30 | B30 | 0.212 | 3.75e-05 | 177000
31 | B31 | 0.219 | 4.8e-05 | 219000
